From patent US20250320281A1
Positions count from the first letter of the chain named.

B1: 1503_H05 (PG16) (TCN-119) (antibody, V domains shown)
VH: QEKLVESGGGVVQPGGSLRLSCLASGFTFHKYGMHWVRQAPGKGLEWVALISDDGMRKYHSDSMWGRVTISRDNSKNTLYLQFSSLKVEDTAMFFCAREAGGPIWHDDVKYYDFNDGYYNYHYMDVWGKGTIVTVSS
VL: QSALTQPASVSGSPGQTITISCNGTRSDVGGFDSVSWYQQSPGKAPKVMVFDVSHRPSGISNRFSGSKSGNTASLTISGLHIEDEGDYFCSSLTDRSHRIFGGGTKVTVLG
B2: 1456_A12 (PG16) (TCN-117) (antibody, V domains shown)
VH: B1 VH with Q1H, K3Q, S7A, K87R, I132K
VL: B1 VL with R26S, S27R, I60M, V107L
B3: 1469_M23 (PG16) (TCN-118) (antibody, V domains shown)
VH: B1 VH with I132T
VL: B1 VL with K44R, V107L
B4: 1489_I13 (PG16) (TCN-120) (antibody, V domains shown)
VH: B1 VH with K3Q, V5L, D62N, I132T
VL: B1 VL with R26S

Target: HIV-1 92RW020 Env (HIV-1 92RW020)
Assay: cell-based or functional assay

| Binder | IC50 (ug/ml), pseudovirus neutralization, TZM-bl assay |
| --- | --- |
| B1 | 0.02 µg/mL |
| B2 | 0.05 µg/mL |
| B3 | 0.05 µg/mL |
| B4 | 0.03 µg/mL |

Target: HIV-1 ADA Env (HIV-1 ADA)
Assay: cell-based or functional assay

| Binder | IC50 (ug/ml), pseudovirus neutralization, TZM-bl assay |
| --- | --- |
| B1 | 0.003 µg/mL |
| B2 | 0.005 µg/mL |
| B3 | 0.005 µg/mL |
| B4 | 0.008 µg/mL |

Target: HIV-1 Env of isolate AC10 (clade B pseudovirus) (HIV-1)
Assay: cell-based or functional assay

| Binder | IC50 (neutralization, TZM-bl pseudovirus assay) |
| --- | --- |
| B1 | < 0.01 µg/mL |
| B2 | < 0.01 µg/mL |
| B3 | < 0.01 µg/mL |
| B4 | < 0.01 µg/mL |

Target: HIV-1 Env of isolate CAAN (clade B pseudovirus) (HIV-1)
Assay: cell-based or functional assay

| Binder | IC50 (neutralization, TZM-bl pseudovirus assay) |
| --- | --- |
| B1 | 13.5 µg/mL |
| B2 | 10.6 µg/mL |
| B3 | 17.7 µg/mL |
| B4 | 24.9 µg/mL |

Target: HIV-1 Env of isolate CAP45 (clade C pseudovirus) (HIV-1)
Assay: cell-based or functional assay

| Binder | IC50 (neutralization, TZM-bl pseudovirus assay) |
| --- | --- |
| B1 | < 0.01 µg/mL |
| B2 | < 0.01 µg/mL |
| B3 | < 0.01 µg/mL |
| B4 | < 0.01 µg/mL |

Target: HIV-1 Env of isolate DU156 (clade C pseudovirus) (HIV-1)
Assay: cell-based or functional assay

| Binder | IC50 (neutralization, TZM-bl pseudovirus assay) |
| --- | --- |
| B1 | < 0.01 µg/mL |
| B2 | < 0.01 µg/mL |
| B3 | < 0.01 µg/mL |
| B4 | < 0.01 µg/mL |

Target: HIV-1 Env of isolate DU422 (clade C pseudovirus) (HIV-1)
Assay: cell-based or functional assay

| Binder | IC50 (neutralization, TZM-bl pseudovirus assay) |
| --- | --- |
| B1 | 0.71 µg/mL |
| B2 | 0.36 µg/mL |
| B3 | 0.97 µg/mL |
| B4 | 1.87 µg/mL |

Target: HIV-1 Env of isolate Du172 (clade C pseudovirus) (HIV-1)
Assay: cell-based or functional assay

| Binder | IC50 (neutralization, TZM-bl pseudovirus assay) |
| --- | --- |
| B1 | < 0.01 µg/mL |
| B2 | < 0.01 µg/mL |
| B3 | < 0.01 µg/mL |
| B4 | < 0.01 µg/mL |

Target: HIV-1 Env of isolate PVO.4 (clade B pseudovirus) (HIV-1)
Assay: cell-based or functional assay

| Binder | IC50 (neutralization, TZM-bl pseudovirus assay) |
| --- | --- |
| B1 | 11 µg/mL |
| B2 | 10.4 µg/mL |
| B3 | 21.2 µg/mL |
| B4 | 20.6 µg/mL |

Target: HIV-1 Env of isolate REJ04541 (clade B pseudovirus) (HIV-1)
Assay: cell-based or functional assay

| Binder | IC50 (neutralization, TZM-bl pseudovirus assay) |
| --- | --- |
| B1 | 0.22 µg/mL |
| B2 | < 0.01 µg/mL |
| B3 | 0.39 µg/mL |
| B4 | 0.34 µg/mL |

Target: HIV-1 Env of isolate THRO.18 (clade B pseudovirus) (HIV-1)
Assay: cell-based or functional assay

| Binder | IC50 (neutralization, TZM-bl pseudovirus assay) |
| --- | --- |
| B1 | 4.12 µg/mL |
| B2 | 2.08 µg/mL |
| B3 | 7.01 µg/mL |
| B4 | 7.41 µg/mL |

Target: HIV-1 Env of isolate TR0.11 (clade B pseudovirus) (HIV-1)
Assay: cell-based or functional assay

| Binder | IC50 (neutralization, TZM-bl pseudovirus assay) |
| --- | --- |
| B1 | 4.3 µg/mL |
| B2 | 3.05 µg/mL |
| B3 | 7.52 µg/mL |
| B4 | 10.9 µg/mL |

Target: HIV-1 Env of isolate ZM214 (clade C pseudovirus) (HIV-1)
Assay: cell-based or functional assay

| Binder | IC50 (neutralization, TZM-bl pseudovirus assay) |
| --- | --- |
| B1 | > 25 µg/mL |
| B2 | > 25 µg/mL |
| B3 | > 25 µg/mL |
| B4 | > 25 µg/mL |

Target: HIV-1 Env of isolate ZM233 (clade C pseudovirus) (HIV-1)
Assay: cell-based or functional assay

| Binder | IC50 (neutralization, TZM-bl pseudovirus assay) |
| --- | --- |
| B1 | < 0.01 µg/mL |
| B2 | < 0.01 µg/mL |
| B3 | < 0.01 µg/mL |
| B4 | < 0.01 µg/mL |

Target: HIV-1 Env of isolate ZM249 (clade C pseudovirus) (HIV-1)
Assay: cell-based or functional assay

| Binder | IC50 (neutralization, TZM-bl pseudovirus assay) |
| --- | --- |
| B1 | < 0.01 µg/mL |
| B2 | < 0.01 µg/mL |
| B3 | < 0.01 µg/mL |
| B4 | < 0.01 µg/mL |

Target: HIV-1 JR-FL Env E168K (HIV-1 JR-FL)
Assay: cell-based or functional assay

| Binder | IC50 (ug/ml), pseudovirus neutralization, TZM-bl assay |
| --- | --- |
| B1 | 0.002 µg/mL |
| B2 | 0.003 µg/mL |
| B3 | 0.005 µg/mL |
| B4 | 0.005 µg/mL |

Target: MuLV envelope protein (control pseudovirus) (MuLV)
Assay: cell-based or functional assay

| Binder | IC50 (neutralization, TZM-bl pseudovirus assay) |
| --- | --- |
| B1 | > 25 µg/mL |
| B2 | > 25 µg/mL |
| B3 | > 25 µg/mL |
| B4 | > 25 µg/mL |
